# Source: patent publication US20260242735A1
# Legend:
# [1] = biological target: human CD33 T42K (human) (UniProt P20138); experiment: flow cytometry on transfected cells, IgG
# [2] = biological target: human CD33 I47E (human) (UniProt P20138); experiment: flow cytometry on transfected cells, IgG
# [3] = biological target: human CD33 Y50N (human) (UniProt P20138); experiment: flow cytometry on transfected cells, IgG
# [4] = biological target: human CD33 F44I (human) (UniProt P20138); experiment: flow cytometry on transfected cells, IgG
# [5] = biological target: human CD33 I47S (human) (UniProt P20138); experiment: flow cytometry on transfected cells, IgG
# [6] = biological target: human CD33 Y50G (human) (UniProt P20138); experiment: flow cytometry on transfected cells, IgG
# Sequence of human CD33 Y50G (human) (P20138 18-364 Y50G limits assumed): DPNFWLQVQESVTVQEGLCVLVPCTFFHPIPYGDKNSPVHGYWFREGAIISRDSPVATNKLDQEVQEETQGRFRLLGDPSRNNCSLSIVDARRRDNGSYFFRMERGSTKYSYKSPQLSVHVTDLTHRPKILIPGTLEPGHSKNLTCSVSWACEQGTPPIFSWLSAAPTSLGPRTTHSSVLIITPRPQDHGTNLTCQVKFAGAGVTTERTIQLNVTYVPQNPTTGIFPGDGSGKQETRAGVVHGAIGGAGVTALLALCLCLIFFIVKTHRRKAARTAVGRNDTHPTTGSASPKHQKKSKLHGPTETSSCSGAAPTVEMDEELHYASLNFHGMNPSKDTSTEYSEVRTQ
# [7] = biological target: human CD33 F44E (human) (UniProt P20138); experiment: flow cytometry on transfected cells, IgG
# [8] = biological target: human CD33 Y49L (human) (UniProt P20138); experiment: flow cytometry on transfected cells, IgG
# [9] = biological target: human CD33 Y50P (human) (UniProt P20138); experiment: flow cytometry on transfected cells, IgG
# [10] = biological target: human CD33 Y50H (human) (UniProt P20138); experiment: flow cytometry on transfected cells, IgG
# Sequence of human CD33 Y50H (human) (P20138 18-364 Y50H limits assumed): as the sequence (P20138 18-364 Y50G limits assumed) above, with G33H counted along it
# [11] = biological target: human CD33 P48M (human) (UniProt P20138); experiment: flow cytometry on transfected cells, IgG
# [12] = biological target: human CD33 Y50Q (human) (UniProt P20138); experiment: flow cytometry on transfected cells, IgG
# Sequence of human CD33 Y50Q (human) (P20138 18-364 Y50Q limits assumed): as the sequence (P20138 18-364 Y50G limits assumed) above, with G33Q counted along it
# [13] = biological target: human CD33 Y49T (human) (UniProt P20138); experiment: flow cytometry on transfected cells, IgG
# [14] = biological target: human CD33 Y50V (human) (UniProt P20138); experiment: flow cytometry on transfected cells, IgG
# [15] = biological target: human CD33 P46I (human) (UniProt P20138); experiment: flow cytometry on transfected cells, IgG
# Sequence of human CD33 P46I (human) (P20138 18-364 P46I limits assumed): as the sequence (P20138 18-364 Y50G limits assumed) above, with P29I, G33Y counted along it
# [16] = biological target: human CD33 F44P (human) (UniProt P20138); experiment: flow cytometry on transfected cells, IgG
# [17] = biological target: human CD33 G318A (human) (UniProt P20138); experiment: flow cytometry, HEK293-T, alanine scan
# [18] = biological target: human CD33 L316A (human) (UniProt P20138); experiment: flow cytometry, HEK293-T, alanine scan
# [19] = biological target: human CD33 G304A (human) (UniProt P20138); experiment: flow cytometry, HEK293-T, alanine scan
# [20] = biological target: human CD33 A341S (human) (UniProt P20138); experiment: flow cytometry, HEK293-T, alanine scan
# Sequence of human CD33 A341S (human) (P20138 18-364 A341S limits assumed): as the sequence (P20138 18-364 Y50G limits assumed) above, with G33Y, A324S counted along it
# [21] = biological target: human CD33 K315A (human) (UniProt P20138); experiment: flow cytometry, HEK293-T, alanine scan
# Sequence of human CD33 K315A (human) (P20138 18-364 K315A limits assumed): as the sequence (P20138 18-364 Y50G limits assumed) above, with G33Y, K298A counted along it
# [22] = biological target: human CD33 C325A (human) (UniProt P20138); experiment: flow cytometry, HEK293-T, alanine scan
# [23] = biological target: human CD33 A272S (human) (UniProt P20138); experiment: flow cytometry, HEK293-T, alanine scan
# [24] = biological target: human CD33 Q311A (human) (UniProt P20138); experiment: flow cytometry, HEK293-T, alanine scan
# [25] = biological target: human CD33 A306S (human) (UniProt P20138); experiment: flow cytometry, HEK293-T, alanine scan
# [26] = biological target: human CD33 L277A (human) (UniProt P20138); experiment: flow cytometry, HEK293-T, alanine scan
# Sequence of human CD33 L277A (human) (P20138 18-364 L277A limits assumed): as the sequence (P20138 18-364 Y50G limits assumed) above, with G33Y, L260A counted along it
# [27] = biological target: human CD33 F279A (human) (UniProt P20138); experiment: flow cytometry, HEK293-T, alanine scan
# [28] = biological target: human CD33 P301A (human) (UniProt P20138); experiment: flow cytometry, HEK293-T, alanine scan
# [29] = biological target: human CD33 R291A (human) (UniProt P20138); experiment: flow cytometry, HEK293-T, alanine scan
# Sequence of human CD33 R291A (human) (P20138 18-364 R291A limits assumed): as the sequence (P20138 18-364 Y50G limits assumed) above, with G33Y, R274A counted along it
# [30] = biological target: human CD33 M334A (human) (UniProt P20138); experiment: flow cytometry, HEK293-T, alanine scan
# [31] = biological target: human CD33 L271A (human) (UniProt P20138); experiment: flow cytometry, HEK293-T, alanine scan
# [32] = biological target: human CD33 R286A (human) (UniProt P20138); experiment: flow cytometry, HEK293-T, alanine scan
# Sequence of human CD33 R286A (human) (P20138 18-364 R286A limits assumed): as the sequence (P20138 18-364 Y50G limits assumed) above, with G33Y, R269A counted along it
# [33] = biological target: human CD33 E337A (human) (UniProt P20138); experiment: flow cytometry, HEK293-T, alanine scan
# [34] = biological target: human CD33 H310A (human) (UniProt P20138); experiment: flow cytometry, HEK293-T, alanine scan
# Sequence of human CD33 H310A (human) (P20138 18-364 H310A limits assumed): as the sequence (P20138 18-364 Y50G limits assumed) above, with G33Y, H293A counted along it
# [35] = biological target: human CD33 S324A (human) (UniProt P20138); experiment: flow cytometry, HEK293-T, alanine scan
# [36] = biological target: human CD33 A290S (human) (UniProt P20138); experiment: flow cytometry, HEK293-T, alanine scan
# Sequence of human CD33 A290S (human) (P20138 18-364 A290S limits assumed): as the sequence (P20138 18-364 Y50G limits assumed) above, with G33Y, A273S counted along it
# [37] = biological target: human CD33 L275A (human) (UniProt P20138); experiment: flow cytometry, HEK293-T, alanine scan
# Sequence of human CD33 L275A (human) (P20138 18-364 L275A limits assumed): as the sequence (P20138 18-364 Y50G limits assumed) above, with G33Y, L258A counted along it
# [38] = biological target: human CD33 T303A (human) (UniProt P20138); experiment: flow cytometry, HEK293-T, alanine scan
# [39] = biological target: human CD33 S307A (human) (UniProt P20138); experiment: flow cytometry, HEK293-T, alanine scan
# [40] = biological target: human CD33 K283A (human) (UniProt P20138); experiment: flow cytometry, HEK293-T, alanine scan
# [41] = biological target: human CD33 E336A (human) (UniProt P20138); experiment: flow cytometry, HEK293-T, alanine scan
# [42] = biological target: human CD33 L273A (human) (UniProt P20138); experiment: flow cytometry, HEK293-T, alanine scan
# [43] = biological target: human CD33 C274A (human) (UniProt P20138); experiment: flow cytometry, HEK293-T, alanine scan
# [44] = biological target: human CD33 N344A (human) (UniProt P20138); experiment: flow cytometry, HEK293-T, alanine scan
# [45] = biological target: human CD33 S314A (human) (UniProt P20138); experiment: flow cytometry, HEK293-T, alanine scan
# Sequence of human CD33 S314A (human) (P20138 18-364 S314A limits assumed): as the sequence (P20138 18-364 Y50G limits assumed) above, with G33Y, S297A counted along it
# [46] = biological target: human wild-type CD33 (human) (UniProt P20138); experiment: flow cytometry, IgG at 0.25 ug/ml on HEK293-T cells expressing CD33 against vector alone
# Sequence of human wild-type CD33 (human) (P20138 18-364 limits assumed): as the sequence (P20138 18-364 Y50G limits assumed) above, with G33Y counted along it
substance,measurement,setting,value
Refmab #7 (WM53) (antibody),Mean % WT Binding,[1],77 % WT binding
same,Mean % WT Binding,[2],3.9 % WT binding
same,Mean % WT Binding,[3],4.7 % WT binding
same,Mean % WT Binding,[4],46.1 % WT binding
same,Mean % WT Binding,[5],33.6 % WT binding
same,Mean % WT Binding,[6],17.2 % WT binding
same,Mean % WT Binding,[7],18.3 % WT binding
same,Mean % WT Binding,[8],1.6 % WT binding
same,Mean % WT Binding,[9],0.4 % WT binding
same,Mean % WT Binding,[10],18 % WT binding
same,Mean % WT Binding,[11],3.2 % WT binding
same,Mean % WT Binding,[12],7.2 % WT binding
same,Mean % WT Binding,[13],0.1 % WT binding
same,Mean % WT Binding,[14],3.9 % WT binding
same,Mean % WT Binding,[15],107 % WT binding
same,Mean % WT Binding,[16],21.8 % WT binding
same,Mean % WT Binding,[17],128 % WT binding
same,Mean % WT Binding,[18],103 % WT binding
same,Mean % WT Binding,[19],103 % WT binding
same,Mean % WT Binding,[20],95 % WT binding
same,Mean % WT Binding,[21],112 % WT binding
same,Mean % WT Binding,[22],101 % WT binding
same,Mean % WT Binding,[23],113 % WT binding
same,Mean % WT Binding,[24],93.6 % WT binding
same,Mean % WT Binding,[25],100 % WT binding
same,Mean % WT Binding,[26],92 % WT binding
same,Mean % WT Binding,[27],124 % WT binding
same,Mean % WT Binding,[28],99.8 % WT binding
same,Mean % WT Binding,[29],120 % WT binding
same,Mean % WT Binding,[30],93.9 % WT binding
same,Mean % WT Binding,[31],113 % WT binding
same,Mean % WT Binding,[32],134 % WT binding
same,Mean % WT Binding,[33],102 % WT binding
same,Mean % WT Binding,[34],90.4 % WT binding
same,Mean % WT Binding,[35],99.2 % WT binding
same,Mean % WT Binding,[36],98 % WT binding
same,Mean % WT Binding,[37],106 % WT binding
same,Mean % WT Binding,[38],77.1 % WT binding
same,Mean % WT Binding,[39],91.7 % WT binding
same,Mean % WT Binding,[40],117 % WT binding
same,Mean % WT Binding,[41],98.4 % WT binding
same,Mean % WT Binding,[42],92.5 % WT binding
same,Mean % WT Binding,[43],102 % WT binding
same,Mean % WT Binding,[44],108 % WT binding
same,Mean % WT Binding,[45],107 % WT binding
same,Signal:Background (signal:background ratio),[46],32
